Patent publication US20190016806A1 (BPS BIOSCIENCE, published 2019)

Target: PD-1 expressed on Jurkat T cells (NFAT luciferase reporter) (human, UniProt Q15116 25-288)
Experiment: cell-based or functional assay

Sequence of PD-1 expressed on Jurkat T cells (NFAT luciferase reporter) (Q15116 25-288): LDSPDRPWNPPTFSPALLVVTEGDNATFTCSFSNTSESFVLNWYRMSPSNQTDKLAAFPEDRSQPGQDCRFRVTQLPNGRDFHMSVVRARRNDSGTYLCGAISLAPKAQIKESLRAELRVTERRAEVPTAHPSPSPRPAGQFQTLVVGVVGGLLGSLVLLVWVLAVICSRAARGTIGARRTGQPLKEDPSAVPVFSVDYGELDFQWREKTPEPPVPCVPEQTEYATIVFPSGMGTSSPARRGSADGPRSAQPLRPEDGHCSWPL

EC50 of inhibition of PD-1 signaling (NFAT luciferase reporter in Jurkat T cells with PD-L1-expressing HEK293 cells): 0.38 mg/L
B1: BPS hAb-10D3 humanized anti-PD-1 neutralizing antibody (antibody, V domains shown)
VH: QVQLQESGPGLVKPSQTLSLTCSVSGYSITSGYFWNWIRQFPGNKLEWIGYISYDGSKNYNPSLKNRVTIIRDTSKNQFSLKLNSVTAEDTATYYCVRGGLPVMDYWGQGTSVTVSS
VL: DIVMTQSPSSLALSVGEKATIQCKSSQSLLDDNNQKNYLAWYQQKPGQPPKLLIFFASTRESGVPDRFIGSGSGTDFTLTISSLQAEDLADYYCQQHYTTPYTFGGGTNVEIK
